The source of these data is patent US20040088744A1.

The target in this assay is fusion protein consisting of apoB17 and the receptor binding domain of apoB ("B17(B69-79)"). As to the kind of experiment: cell-based or functional assay.

The substance “ligand binding domain of the LDL receptor ("soluble LDL receptor") (from UniProt P01130 22-354)” showed a secretion of the fusion protein of 10 fold.
